Data: article PMC8988010 (The Journal of Biological Chemistry, 2021)

Experiments:
SEC-MALS = target: the molecule itself; experiment: SEC-MALS
HNF-1A DD-DBD R263C = HNF-1A DD-DBD R263C (Homo sapiens, UniProt P20823 1-279, R263C); experiment: ITC
HNF-1A DBD N266S = HNF-1A DBD N266S (Homo sapiens, UniProt P20823 83-279, N266S); experiment: ITC
HNF-1A DBD R263C = HNF-1A DBD R263C (Homo sapiens, UniProt P20823 83-279, R263C); experiment: ITC
HNF-1A DD-DBD N266S = HNF-1A DD-DBD N266S (Homo sapiens, UniProt P20823 1-279, N266S); experiment: ITC

B1: HNF-1A DD-DBD (hepatocyte nuclear factor 1A, residues 1-279, WT) (domain or fragment, human, UniProt P20823 1-279, looked up)
chain: MVSKLSQLQTELLAALLESGLSKEALIQALGEPGPYLLAGEGPLDKGESCGGGRGELAELPNGLGETRGSEDETDDDGEDFTPPILKELENLSPEEAAHQKAVVETLLQEDPWRVAKMVKSYLQQHNIPQREVVDTTGLNQSHLSQHLNKGTPMKTQKRAALYTWYVRKQREVAQQFTHAGQGGLIEEPTGDELPTKKGRRNRFKWGPASQQILFQAYERQKNPSKEERETLVEECNRAECIQRGVSPSQAQGLGSNLVTEVRVYNWFANRRKEEAFRH
stoichiometry N (SEC-MALS): 2

B2: HNF-1A DD-DBD/R263C (residues 1-279, MODY3 variant p.Arg263Cys) (domain or fragment, human, UniProt P20823 1-279, looked up)
chain: MVSKLSQLQTELLAALLESGLSKEALIQALGEPGPYLLAGEGPLDKGESCGGGRGELAELPNGLGETRGSEDETDDDGEDFTPPILKELENLSPEEAAHQKAVVETLLQEDPWRVAKMVKSYLQQHNIPQREVVDTTGLNQSHLSQHLNKGTPMKTQKRAALYTWYVRKQREVAQQFTHAGQGGLIEEPTGDELPTKKGRRNRFKWGPASQQILFQAYERQKNPSKEERETLVEECNRAECIQRGVSPSQAQGLGSNLVTEVCVYNWFANRRKEEAFRH
stoichiometry N (SEC-MALS): 2

B3: HNF-1A DD-DBD/N266S (residues 1-279, variant p.Asn266Ser) (domain or fragment, human, UniProt P20823 1-279, looked up)
chain: MVSKLSQLQTELLAALLESGLSKEALIQALGEPGPYLLAGEGPLDKGESCGGGRGELAELPNGLGETRGSEDETDDDGEDFTPPILKELENLSPEEAAHQKAVVETLLQEDPWRVAKMVKSYLQQHNIPQREVVDTTGLNQSHLSQHLNKGTPMKTQKRAALYTWYVRKQREVAQQFTHAGQGGLIEEPTGDELPTKKGRRNRFKWGPASQQILFQAYERQKNPSKEERETLVEECNRAECIQRGVSPSQAQGLGSNLVTEVRVYSWFANRRKEEAFRH
binding result (SEC-MALS): binds

B4: RA (rat albumin promoter oligonucleotide), unlabeled (dsDNA)
DNA 1: CTTGGTTAATAATTCACCAGA
DNA 2: TCTGGTGAATTATTAACCAAG
Kd (HNF-1A DD-DBD R263C): 8000 ± 3000 nM
Kd (HNF-1A DBD N266S): 570 ± 50 nM
Kd (HNF-1A DBD R263C): 2000 ± 140 nM
Kd (HNF-1A DD-DBD N266S): 740 ± 110 nM
